The values below come from article PMC10553838 (PLOS Pathogens, 2023).

This assay has as its target F-actin (filamentous rabbit skeletal muscle α-actin) (rabbit, UniProt P68135 1-377). As to the kind of experiment: cell-based or functional assay.

Numbering of substitutions follows the chain as printed. Numbers in names are those of the source.

B1: Pa-ExoY (20-378) K347A (enzyme)
chain: LLRPADMQARALQDLFDAQGVGVPVEHALRMQAVARQTNTVFGIRPVERIVTTLIEEGFPTKGFSVKGKSSNWGPQAGFICVDQHLSKREDRDTAEIRKLNLAVAKGMDGGAYTQTDLRISRQRLAELVRNFGLVADGVGPVRLLTAQGPSGKRYEFEARQEADGLYRISRLGRSEAVQVLASPACGLAMTADYDLFLVAPSIEAHGSGGLDARRNTAVRYTPLGAKDPLSEDGFYGREDMARGNITPRTRQLVDALNDCLGRGEHREMFHHSDDAGNPGSHMGDNFPATFYLPRAMEHRVGEESVRFDEVCVVADRKSFSLLVECIAGNGYHFTAHPDWNVPLRPGFQEALDFFQRKV
For the molecule B1, the “F-actin-stimulated guanylate cyclase (cGMP synthesis) activity, 3 μM F-actin, against wild-type Pa-ExoY” value (shortened to “F-actin-stimulated guanylate cyclase”) is ~15 fold decrease.

B2: Pa-ExoY (20-378) H352A (enzyme)
chain: B1 chain with A328K, H333A
Turning to B2, the “F-actin-stimulated guanylate cyclase” value is ~8 fold decrease.

B3: Pa-ExoY (20-378) 3 Mut (F367A-L371A-F374A) (enzyme)
chain: B1 chain with A328K, F348A, L352A, F355A
B3: the “F-actin-stimulated guanylate cyclase” value was ~12000 fold reduction.
